Target: T1, FoxA1 (full-length) (UniProt P55317 P55317:1-472)
T1 sequence: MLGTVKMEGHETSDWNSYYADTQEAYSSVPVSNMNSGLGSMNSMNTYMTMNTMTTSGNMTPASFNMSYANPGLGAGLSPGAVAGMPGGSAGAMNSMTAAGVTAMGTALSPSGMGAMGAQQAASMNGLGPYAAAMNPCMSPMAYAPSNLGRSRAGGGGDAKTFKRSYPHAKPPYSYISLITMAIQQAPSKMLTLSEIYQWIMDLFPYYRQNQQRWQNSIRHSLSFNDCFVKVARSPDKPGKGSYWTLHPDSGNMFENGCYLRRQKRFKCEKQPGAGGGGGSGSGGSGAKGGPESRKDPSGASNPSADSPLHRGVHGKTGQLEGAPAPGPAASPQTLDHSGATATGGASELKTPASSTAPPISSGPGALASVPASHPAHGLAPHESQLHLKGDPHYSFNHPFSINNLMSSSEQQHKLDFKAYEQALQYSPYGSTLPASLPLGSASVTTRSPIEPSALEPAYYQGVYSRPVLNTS
Experiment: negative control; no fluorescence change of ACP-430 or CCP-410 on adding FoxA1
Conditions: tags: N-terminal His-MBP fusion, pHISMBP vector, E. coli BL21(DE3); label: 5'-thiol-AuNP on sense strand (sensor)

B1: mtR3 (dsDNA)
DNA 1: AAAGTATTCAGAATCCATG
DNA 2: CATGGATTCTGAATACTTT
  binding result: no binding

Reference: US20140335510, “NANOPARTICLE SENSOR FOR NUCLEIC ACID-PROTEIN INTERACTION” (Agency for Science, Technology and Research, published 2014)
